Data reported in patent US5462743A, “Substance transfer system for topical application” (Medipro Sciences Limited, priority 1993, dated 1995).
“And” between values parts separate entries of the source, which are not always exact repeats. Equal values may be shown once.

Tests used:
[1] = in the bloodstream; cited from earlier work
[2] = In vitro permeation through intact skin, patch of FIGS. 14 and 15 (Example 6); format: in vitro ADME, Hairless Guinea Pig
Protocol: (§1) The wells were filled with porous plastic.
In addition to the transdermal patches using porous plastic depots as described in Example 5, patches containing fibrous depots were also tested. The fibrous depots, also measured 3 mm in length were cut from an aligned bonded cellulose acetate rod, 3 mm in diameter (R14236 from American Filtrona Co.).

[3] = In vitro skin permeation, patch of FIG. 2 (Example 1); settings: compromised skin, 37° C, contact area 0.21 cm^2, about 1 mg loaded, less than ideal intimate contact
Description: (§2) The skin penetration of model compounds from a transdermal patch constructed according to FIG. 2 was established in vitro by a permeation study. […] The array measured 1.7×1.7 cm and was centrally located. […] On this outer surface of the adhesive layer, but between the slightly protruding silicone tubing was cast a 30% solution of silicone sealant in hexane. The channels were filled with filaments of open cell polyurethane foam. On top of the dry silicone layer was placed a reservoir support layer consisting of a 1.5 mm thick sheet of the same open-cell polyurethane foam, 2.0 cm in diameter. The outer, barrier layer of the patch was a 3.5 cm diameter section of DERMAFLEX V-300-F FLESH (vinyl coated with a medical grade acrylic adhesive, FLEXCON Company). The reservoir and channels of the patch were loaded with a solution which contained a fluorescently labelled model compound (polypeptides or polysaccharide). […] The sections of modified skin (stratum corneum removed) were excised from the Hairless Guinea Pig and mounted on the diffusion cell above a solution of isotonic saline such that the dermal side of skin was in contact with the magnetically stirred receptor liquid. The device was brought into intimate contact with the epidermal surface of the skin. The effective contact area of the solution with the skin through the channels was 0.21 cm^2. […]

[4] = In vitro skin permeation, patch of FIG. 2 with H566 adhesive (Example 2); settings: compromised skin, approximately 1 mg loaded, intimate contact maintained
Description: as §2

[5] = In vitro skin permeation, patch of FIG. 3 (Example 4); format: in vitro ADME, Hairless Guinea Pig; settings: porous plastic depots
Description: […] […] Duplicate samples of each test compound were run.
skin compatible adhesive, H-566 coated onto a white polyethylene closed cell foam, 0.8 mm thick (Dermaflex PEF 32-W H-566 from Flexcon Company, Inc.) was used, perforated with an array of 69 cylindrical channels approximately 0.84 mm in diameter;
the channels were not lined; instead they were filled with cylindrical sections of porous plastic material (Hydrophilic HDPE with medium pore size, NO. X-4899, Porex Technologies);
the silicone sealant was absent; a reservoir support layer consisting of 1.6 mm thick sheet of porous plastic material, 2.0 cm in diameter (Hydrophilic HDPE with coarse pore size, NO. X-4916, Porex Technologies) was placed directly above the array of 69 channels;
Some variability in results, as between attempted duplicates, was observed, largely attributable to uncertain intimate contact between the reservoir and the skin contacting matrices.

[6] = In vitro skin permeation, patch of FIGS. 14 and 15, liquid reservoir (Example 5); format: in vitro ADME, Hairless Guinea Pig; settings: porous plastic depots, contact area 1.1 cm^2
[7] = In vitro skin permeation, patch of FIGS. 14 and 15, dried drug matrix (Example 7); format: in vitro ADME, Hairless Guinea Pig; settings: freeze dried depots, porous plastic matrix
Description: as §1
The drug depots were hydrated with a suitable solubilizing solution just before the start of the permeation study, as illustrated in FIG. 6.

[8] = in vivo; cited from earlier work
cancerous body cells = settings: subsequently converted into protoporphyrin IX; cited from earlier work

parathyroid hormone: polypeptide drug, parathyroid hormone (9,500 daltons)
half-life [1]: less than 15 minutes

C[C@]12CC[C@@H]3c4ccc(O)cc4CC[C@H]3[C@@H]1CC[C@@H]2O [Estradiol, estradiol]
Amount Permeated (Cumulative) ([2]; fibrous matrix, 8 hrs): 0.19 Micrograms and 0.34 Micrograms
Amount Permeated (Cumulative) ([2]; fibrous matrix, 24 hrs): 1.74 Micrograms and 2.93 Micrograms
Amount Permeated (Cumulative) ([2]; fibrous matrix, 48 hrs): 2.99 Micrograms and 4.83 Micrograms
Amount Permeated (Cumulative) ([2]; porous plastic matrix, 8 hrs): 1.01 Micrograms and 1.03 Micrograms
Amount Permeated (Cumulative) ([2]; porous plastic matrix, 24 hrs): 6.14 Micrograms and 6.87 Micrograms
Amount Permeated (Cumulative) ([2]; porous plastic matrix, 48 hrs): 9.90 Micrograms and 10.69 Micrograms

Insulin
Amount Permeated in 20 Hrs. [3]: 0.04 Micrograms and 0.05 Micrograms
Amount Permeated in 20 Hrs. [4]: 10.85 Micrograms and 8.30 Micrograms
Amount Permeated in 20 Hrs. [5]: 41.96 Micrograms and 22.78 Micrograms

Casein
Amount Permeated in 20 Hrs. [3]: 0.05 Micrograms and 0.03 Micrograms
Amount Permeated in 20 Hrs. [5]: 75.98 Micrograms and 104.98 Micrograms

human growth hormone: polypeptide drug, human growth hormone (22,000 daltons)
half-life [1]: less than 25 minutes

Cytochrome C: carbon-14 labelled model compound, polypeptide, 12,300, from horse heart
Amount Permeated (Cumulated) ([6]; 4 hrs): 117.8 micrograms and 103.4 micrograms
Amount Permeated (Cumulated) ([6]; 8 hrs): 257.5 micrograms and 239.8 micrograms
Amount Permeated (Cumulated) ([6]; 24 hrs): 581.6 micrograms and 572.6 micrograms
Amount Permeated (Cumulated) ([6]; 48 hrs): 740.0 micrograms and 728.3 micrograms
Amount Permeated (Cumulative) ([7]; 4 hrs): 40.4 Micrograms
Amount Permeated (Cumulative) ([7]; 8 hrs): 124.2 Micrograms and 119.9 Micrograms
Amount Permeated (Cumulative) ([7]; 24 hrs): 412.6 Micrograms and 363.1 Micrograms
Amount Permeated (Cumulative) ([7]; 48 hrs): 642.7 Micrograms and 560.6 Micrograms

Hyaluronic acid [HA]
accumulation in HA-depleted areas [8]: preferentially accumulates in these depleted areas

NCC(=O)CCC(=O)O [5-aminolevulinic acid]
absorption by cancerous body cells (cancerous body cells): preferentially absorbed by cancerous body cells
